Results from US20110293620A1.

Experiments:
[1] = target: recombinant PR1/HLA-A*0201 monomer (human); assay: SPR, Biacore; antibody captured on anti-mouse antibody surface, peptide/HLA-A2 as analyte
[2] = target: recombinant PR1/HLA-A*0201 monomer (human); assay: SPR (BIAcore 3000), BB7.2 captured on an anti-mouse antibody surface, PR1/HLA-A2 monomer (HLA-A2/beta2m/peptide) as analyte in a concentration series, 25 C, first-order kinetic fit; the box below the panel and the text round it to 162 nM

Kd [1]: 162 nM
Kd [2]: 162 nM
Substance: BB7.2 murine monoclonal antibody (HLA-A*0201 allele-specific mouse IgG2a)
